Data reported in EP4176934A1, “LIPIDIZED COCAINE- AND AMPHETAMINE-REGULATED TRANSCRIPT PEPTIDE ANALOGUES AS ANTI-OBESITY AND NEUROPROTECTIVE AGENTS” (Ustav organicke chemie a biochemie AV CR, v.v.i., priority 2021, dated 2023).
Bridge positions count the residues as written; N and C are the ends. Square brackets hold non-standard residues; d marks the D form. Ends that are not written are not given here. * marks the point of attachment. Palmitoyl = CCCCCCCCCCCCCCCC(=O)*; Myristoyl = CCCCCCCCCCCCCC(=O)*; Nle = CCCC[C@H](N)C(=O)O; Octanoyl = CCCCCCCC(=O)*

B1: 125I-CART(61-102) (peptide)
peptide: KYGQVPMCDAGEQCAVRKGARIGKLCDCPRGTSCNSFLLKCL
modifications: disulfide 14-34, 8-26, 28-41; ends not checked; also: monoiodinated with 125I, residue not given here

What was measured:
[1] = target: CARTp binding site in PC12 cells (prospective CARTp receptor) (rat); assay: displacement of 125I-CART(61-102) from PC12 cells, Cheng-Prusoff
[2] = target: CARTp binding site in PC12 cells (prospective CARTp receptor) (rat); assay: displacement of 125I-CART(61-102) from PC12 cells, relative to CART(61-102)
[3] = target: CARTp binding site in PC12 cells (prospective CARTp receptor) (rat); assay: displacement of 125I-CART(61-102) from PC12 cells; range told of the group, this end tied by Table 2
[4] = Stability in rat plasma measured by ELISA; format: in vitro ADME; settings: 100 ng.ml^-1, 37 °C, 96 hours, EDTA plasma, compared to CART 2S-S
Procedure: Blank rat pooled EDTA plasma was conditioned in an incubator at 37 °C. Plasma was preheated to reach required temperature and then it was spiked with a solution of CART 2S-S and palm-CART analogues (dissolved in aqueous 0.5% formic acid) to a final concentration 100 ng.ml^-1. Duplicates were taken for ELISA analysis, sampling volume was 50 µL. Samples were immediately transferred to -20 °C.
ELISA kit for CARTp (MyBioSource, San Diego, CA, USA) was used in accordance with manufacturer's directions. In addition, external calibration using palm-CART was used. The rat plasma was applied for the calibration to comprise specific influence of different matrices on the immunoanalysis output.

[5] = target: CARTp binding site in PC12 cells (prospective CARTp receptor) (rat); assay: radioligand binding on PC12 cells, 10^-10 M tracer
[6] = target: CARTp binding site in PC12 cells (prospective CARTp receptor) (rat); assay: Kd of the radioligand on PC12 cells, used in the Cheng-Prusoff equation; how it was measured is not stated

Row | Molecule | Ki [1] | % binding CART(61-102) [2] | Ki [3] | stability in rat plasma [4] | total binding, % of the radioactivity added [5] | Kd [6]
1 | Palm-CART [74-94, 86-101] (peptide) | 1090 nM | 0.85% | 1000 nM | – | – | –
2 | Palmitoyl-KYGQVP[Nle]ADAGEQCAVRKGARIGKLADCPRGTSCNSFLLKCL (disulfide 14-34, 28-41) [Palm-CART] | – | – | – | higher stability | – | –
3 | KYGQVP[Nle]ADAGEQCAVRKGARIGKLADCPRGTSCNSFLLKCL (disulfide 14-34, 28-41) [CART 2S-S] | 261 nM | 3.5% | – | – | – | –
4 | Palmitoyl-KYGQVP[Nle]ADAGEQCAVRKGARIGKLADCPRGTSCNSFLLKCL (disulfide 14-34, 28-41) [Palm-CART] | 1.43 nM | 652% | 1 nM | – | – | –
5 | Myristoyl-KYGQVP[Nle]ADAGEQCAVRKGARIGKLADCPRGTSCNSFLLKCL (disulfide 14-34, 28-41) [Myr-CART] | 12.1 nM | 78% | – | – | – | –
6 | Octanoyl-KYGQVP[Nle]ADAGEQCAVRKGARIGKLADCPRGTSCNSFLLKCL (disulfide 14-34, 28-41) [Oct-CART] | 76.1 nM | 12% | – | – | – | –
7 | KYGQVPMCDAGEQCAVRKGARIGKLCDCPRGTSCNSFLLKCL (disulfide 14-34, 8-26, 28-41) [CART(61-102)] | 9.33 nM | 100% | – | – | – | –
8 | B1 | – | – | – | – | 3 to 8% | 1.49 nM
